Measurements reported in patent US20120237442A1.

Target: CH1-AD1-Fab-h679
Assay: equilibrium gel filtration analysis of the binary complex (DDD1 dimer docking to AD1); complex also seen by SE-HPLC

Chain of CH1-AD1-Fab-h679 (heavy, as listed by the source): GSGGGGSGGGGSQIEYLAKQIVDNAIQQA

- Kd: 8 nM
Substance: CH1-DDD1-Fab-hMN-14
